Measured values reported in patent US20230134580A1 (SHANGHAI HENLIUS BIOTECH, published 2023).
Changes are numbered by the printed parent chain.

T1: human TIGIT (T cell immunoreceptor with Ig and ITIM domains), expressed on cells (human, UniProt Q495A1 22-244)
T1 sequence: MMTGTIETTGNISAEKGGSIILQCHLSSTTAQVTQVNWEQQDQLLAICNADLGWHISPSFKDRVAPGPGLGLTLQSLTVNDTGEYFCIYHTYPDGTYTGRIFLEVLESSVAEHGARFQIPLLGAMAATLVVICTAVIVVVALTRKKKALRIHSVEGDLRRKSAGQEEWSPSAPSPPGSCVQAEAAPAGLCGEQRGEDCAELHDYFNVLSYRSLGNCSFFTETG

T2: recombinant human TIGIT extracellular domain (ECD) (human, UniProt Q495A1 22-138)
T2 construct: Bought protein (Arco Bio); also called h-TIGIT ECD; h-TIGIT
T2 sequence: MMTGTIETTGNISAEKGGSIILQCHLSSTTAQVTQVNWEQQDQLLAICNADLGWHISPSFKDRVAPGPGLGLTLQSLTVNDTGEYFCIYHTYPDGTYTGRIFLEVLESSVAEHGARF

B1: 1C12-chimeric (1C12 bivalent VHH antibody) (Fc fusion, not shown: small tags and cut ends)
chain: QVQLVESGGGLVQTGDSLRLSCAASSRIFSRYGMGWFRQAPGKEREFVAAISWNGASTTYTDSVKGRFTISRDSAENTTYLQINSLRPEDTAVYYCAADPWGAVKLGTAEYEYWGQGTQVTVSS
B2: 2B7 bivalent VHH antibody (Fc fusion)
VHH: QVQLVESGGGLVQAGGSLRLACAASGRTFSSYPMGWFRQGPGKERESVAAISSDGRFTYYAASVKGRFTISKDNAKSAAFLQMNSLKPEDTAVYYCAARDSGSGYYSRAQWYDYWGQGTQVTVSS
notes: Bivalent VHH-CH2-CH3, ExpiCHO, Protein A purified
B3: 1G1-chimeric (1G1 bivalent VHH antibody) (Fc fusion)
chain: B2 VHH with G16D, A21S, A23V, R27P, T28S, Q120L
notes: Llama VHH of 1G1 with human IgG1 CH2 and CH3 domains; also called chimeric clone; not shown: human IgG1 CH2 and CH3 domains
B4: 2B10 bivalent VHH antibody (Fc fusion)
VHH: QVKLEESGGGLVQTGDSLRLSCAASSRIFRRYAMGWFRQAPGKEREFVAAITWSGASTTYTDSVKGRFTISRDSAENTTYLQMTSLRPEDTAVYYCAADPWGSVIVGTAEYEYWGQGTLVTVSS
B5: 3G7 bivalent VHH antibody (Fc fusion)
VHH: QVQLVESGGGLVQAGDSLRLSCEASGRTLSTYTMGWFRRAPGKEREFVGLAWPSPSTYVVDSVKGRFTISRDNAKNTIYLQMNSLKPEDTAIYYCAADYKSLTQSWLNAALDYWGQGTQVTVSS
notes: as for B2
B6: 3G6 bivalent VHH antibody (Fc fusion)
VHH: QVQLVESGGGLVQAGGSLSLSCAASGSIFGISVMGWYRQAPGEQRDLVATLTRAGLTTYGDSVKGRFSISRDSAKNTVYLQMNNLKPEDTAVYYCHANIMESAASTFGRYWGQGTQVTVSS
B7: 3F10 bivalent VHH antibody (Fc fusion)
VHH: QVQLVESGGGLVQAGGSLRLSCASSEHTFSNFPMGWFRQAPGKERNVVAAIDSSGRLTYYADSVKGRFTISKDNAKSTVYLQMNSLKSEDTARYYCAARTGGVGYYSRSSFYNYWGQGTLVTVSS
B8: 1C12-EREF humanized bivalent antibody (Fc fusion)
VHH: B1 chain with L11V, T14P, D16R, S74N, A75S, E76K, T79L, I83M, P88A
B9: 1C12-EREW humanized bivalent antibody (Fc fusion)
VHH: B1 chain with L11V, T14P, D16R, F47W, S74N, A75S, E76K, T79L, I83M, P88A
B10: 1C12-GLEW humanized bivalent antibody (Fc fusion)
VHH: QVQLVESGGGVVQPGRSLRLSCAASSRIFSRYGMGWFRQAPGKGLEWVAAISWNGASTTYTDSVKGRFTISRDNSKNTLYLQMNSLRAEDTAVYYCAADPWGAVKLGTAEYEYWGQGTQVTVSS
B11: 1G1-F-G-ERES humanized bivalent antibody (Fc fusion)
VHH: QVQLVESGGGVVQPGRSLRLSCAASGPSFSSYPMGWFRQGPGKERESVAAISSDGRFTYYADSVKGRFTISRDNSKNTLYLQMNSLRAEDTAVYYCAARDSGSGYYSRAQWYDYWGQGTLVTVSS
notes: Humanized on germline IGHV-3-30*01
B12: 2B10 VHH (VHH)
VHH: B4 VHH
notes: Tested as VHH in SS320 culture supernatant
B13: 1C12 VHH (VHH)
VHH: B1 chain
notes: as for B12
B14: 3G7 VHH (VHH)
VHH: B5 VHH
notes: as for B12
B15: 3G6 VHH (VHH)
VHH: B6 VHH
notes: as for B12
B16: 13H11 VHH (VHH)
VHH: B2 VHH with A21S, R27L, S31M, P33A
notes: as for B12
B17: 2B7 VHH (VHH)
VHH: B2 VHH
notes: as for B12
B18: 1G1 VHH (VHH)
VHH: B2 VHH with G16D, A21S, A23V, R27P, T28S, Q120L
notes: as for B12
B19: 15A5 VHH (VHH)
VHH: QVQLVESGGGLVQAGGSLRLSCAASERTFSSFAMGWFRQAPGKEREVVAAIDPSGRYIYYKDSVKGRFTMSRDNAKSTVYLQMNSLKPDDTARYYCAARIRGEGYYTRSSFYHYWGQGTQVTVSS
notes: as for B12
B20: 3F10 VHH (VHH)
VHH: B7 VHH
notes: as for B12

Molecular target: T1, human TIGIT (T cell immunoreceptor with …)
Test: cell-based or functional assay

| Binder | EC50 (read off the curve), NFAT luciferase reporter, TIGIT blockade [nM] |
| --- | --- |
| B1 | ~1 |
| B2 | ~1 |
| B3 | ~1 |

Molecular target: T1, human TIGIT (T cell immunoreceptor with …)
Test: cell-based or functional assay
Remark: another data set of the same source

| Binder | EC50 (read off the curve), NFAT luciferase reporter, TIGIT blockade [nM] |
| --- | --- |
| B4 | ~0.7 |
| B5 | ~1 |
| B6 | ~3 |
| B7 | ~0.3 |

Molecular target: T1, human TIGIT (T cell immunoreceptor with …)
Test: cell-based or functional assay
Remark: another data set of the same source

| Binder | EC50 (read off the curve), NFAT luciferase reporter, TIGIT blockade [nM] |
| --- | --- |
| B8 | ~2 |
| B9 | ~3 |
| B10 | ~2 |
| B1 | ~0.7 |

Molecular target: T1, human TIGIT (T cell immunoreceptor with …)
Test: cell-based or functional assay
Remark: another data set of the same source

| Binder | EC50 (read off the curve), NFAT luciferase reporter, TIGIT blockade [nM] |
| --- | --- |
| B1 | ~0.8 |
| B3 | ~0.7 |
| B11 | 1 to 1.6 |

Molecular target: T2, recombinant human TIGIT extracellular …
Test: blocking ELISA, VHH clone against PVR binding to h-TIGIT

| Binder | % inhibition of PVR binding to h-TIGIT [%] |
| --- | --- |
| B12 | > 90 |
| B13 | > 90 |
| B14 | > 90 |
| B15 | > 90 |
| B16 | > 90 |
| B17 | > 90 |
| B18 | > 90 |
| B19 | > 90 |
| B20 | > 90 |

Molecular target: T1, human TIGIT (T cell immunoreceptor with …)
Test: flow cytometry, whole cell binding to Jurkat cells stably expressing human TIGIT; anti-human IgG Fc AlexaFluor488
Protocol: Y axis is values of Mean Fluorescence Intensity of AlexaFlour 488. X axis is values of antibody concentrations in nanomolar.
The binding affinities of the humanized bivalent antibodies to human TIGIT were determined by whole cell binding to h-TIGIT stably expressed on Jurkat cells. Briefly, antibodies were incubated with h-TIGIT transfected Jurkat cells (0.2×10⁶/well in 100 μl) for 30 min in FACS buffer. The cells were washed once, then incubated with anti-human IgG Fc AlexaFluor488 (1:500).

| Binder | EC50 (read off the curve) [nM] |
| --- | --- |
| B3 | ~0.08 |
| B11 | ~0.2 |

Molecular target: T1, human TIGIT (T cell immunoreceptor with …)
Test: flow cytometry, whole cell binding to Jurkat cells stably expressing human TIGIT; Alexa Fluor 488 anti-human IgG Fc secondary antibody
Description: FIGS. 1A-1C depict whole cell binding of representative VHH bivalent antibodies to human TIGIT determined by flowcytometry assays. […] Y axis represents Mean Fluorescence Intensity of AlexaFlour 488. X axis represents antibody concentrations in nanomolar. […] FIG. 1C is a schematic of the structure of a TIGIT VHH bivalent antibody.
Jurkat cells stably expressing human TIGIT and NFAT reporter gene were established. Specifically, Jurkat cells were transfected with human TIGIT expression vector by electroporation, and cells stably expressing human TIGIT were selected by 1 μg/ml puromycin during cell culture. Representative antibody clones were incubated at different concentrations with h-TIGIT stably expressing Jurkat cells (0.2×10^6/ml) in 100 μl/well in 96-well plate in FACS buffer (PBS with 1.5% FBS) for 30 min. After washing, Alexaflour 488 conjugated anti-human IgG Fc secondary antibody (Alexa Fluor® 488 AffiniPure Goat Anti-Human IgG, Fcγ fragment specific, Jackson labs, 1:500 dilution) was added and incubated for 30 min. After washing, mean fluorescence intensity was measured using CytoFlex (Beckman Coulter) by gating live cell population. Binding affinity was calculated using GraphPad Prism.

| Binder | EC50 (read off the curve) [nM] |
| --- | --- |
| B5 | ~0.3 |
| B2 | ~0.2 |
| B3 | ~0.1 |
